T1: huNABA-avi-his (hybrid protein N-A1-B3-A2: N and A1 domains of human BGP, B3 domain of human CEA, A2 domain … (human, biotinylated at the avi tag (in vivo, co-transfected biotin ligase)))
T1 construct: also called NABA-avi-his reagent; biotinylated NABA
T1 chain: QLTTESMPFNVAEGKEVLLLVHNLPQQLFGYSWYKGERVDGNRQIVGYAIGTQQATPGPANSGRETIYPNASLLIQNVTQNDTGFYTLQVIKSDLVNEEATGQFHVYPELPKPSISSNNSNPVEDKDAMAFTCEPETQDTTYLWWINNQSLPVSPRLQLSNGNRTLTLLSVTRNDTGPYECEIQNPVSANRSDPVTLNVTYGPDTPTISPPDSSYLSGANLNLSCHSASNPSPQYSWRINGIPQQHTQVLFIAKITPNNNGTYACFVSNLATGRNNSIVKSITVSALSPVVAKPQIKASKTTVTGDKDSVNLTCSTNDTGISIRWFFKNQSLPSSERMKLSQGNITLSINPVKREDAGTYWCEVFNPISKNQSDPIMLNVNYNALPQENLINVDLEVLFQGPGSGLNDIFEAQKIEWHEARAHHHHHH


How the values were obtained:
[1] = target: T1, huNABA-avi-his (hybrid protein …); assay: Biacore on immobilized NABA-avi-his; Bivalent Affinity
[2] = target: T1, huNABA-avi-his (hybrid protein …); assay: Proteon SPR, antibody analyte on biotinylated NABA (Neutravidin chip); column Ka (M)
[3] = target: T1, huNABA-avi-his (hybrid protein …); assay: Proteon SPR, antibody analyte on biotinylated NABA (Neutravidin chip)
[4] = target: T1, huNABA-avi-his (hybrid protein …); assay: Proteon SPR, antibody analyte on biotinylated NABA (Neutravidin chip); column Ka (M)
Excerpt: (§1) Shown in FIG. 22 are Proteon (Biacore) sensorgrams obtained for the binding of the CDR-H3 antibody variants to the CEA antigen-harbouring chimeric protein NABA. […] The affinity matured precursor clone 5HFF12 and the parental antibody CH7A were included for direct comparison. All antibodies tested in this assay had 2F1 as the light chain. […] The relative affinity of each, measured in the bivalent form, is as follows: 5HFF12>CH7A (Y98A/D99Y)>CH7A (Y98A)>CH7A>CH7A (E102Q)>CH7A (D99Y)>CH7A (D99H)>CH7A (A103T)>CH7A (V101F)>CH7A (W95Y).

[5] = target: T1, huNABA-avi-his (hybrid protein …); assay: Proteon SPR, antibody analyte on biotinylated NABA (Neutravidin chip)
Excerpt: as §1

[6] = target: T1, huNABA-avi-his (hybrid protein …); assay: Biacore, Fab on immobilized NABA-avi-his; column Monovalent Affinity

Binder | Kd [1] [nM] | koff [1] [s⁻¹] | kon [1] [M⁻¹ s⁻¹] | kon [4] [M⁻¹ s⁻¹] | Kd [5] [nM] | also measured
H4E9 x 2F1 (bivalent) (antibody, V domains shown, bivalent form of the clone) VH: QVQLVQSGSELKKPGASVKVSCKASGYTFTEFGMNWVRQAPGQGLEWMGWINTKTGEATYIEEFKGRFVFSLDTSVSTAYLQISSLKAEDTAVYYCARWDFYDYVEAMDYWGQGTTVTVSS VL: DIQMTQSPSSLSASVGDRVTITCKASAAVGTYVAWYQQKPGKAPKLLIYSASYRKRGVPSRFSGSGSGTDFTLTISSLQPEDFATYYCHQYYTYPLFTFGQGTKLEIKR | 0.452 | 0.000191 | 423000 |  |  | 
1C8 x 2F1 (bivalent) (antibody, V domains shown, bivalent form of the clone; copies: 2 + 2) VH: QVQLVQSGSELKKPGASVKVSCKASGYTFTEFGMNWVRQAPGQGLEWMGWINTKTGEATYVEEFKGRFVFSLDTSVSTAYLQISSLKAEDTAVYYCARWDFYHYVEAMDYWGQGTTVTVSS VL: DIQMTQSPSSLSASVGDRVTITCKASAAVGTYVAWYQQKPGKAPKLLIYSASYRKRGVPSRFSGSGSGTDFTLTISSLQPEDFATYYCHQYYTYPLFTFGQGTKLEIK | 0.66 | 0.000636 | 968000 |  |  | 
anti-CEA antibody with heavy chain CH1A1G and light chain 2F1 (antibody, V domains shown) VH: QVQLVQSGAEVKKPGASVKVSCKASGYTFTEFGMNWVRQAPGQGLEWMGWINTKTGEATYVEEFKGRVTMTTDTSTSTAYMEIRSLRSDDTAVYYCARWDFYDYVEAMDYWGQGTTVTVSS VL: DIQMTQSPSSLSASVGDRVTITCKASAAVGTYVAWYQQKPGKAPKLLIYSASYRKRGVPSRFSGSGSGTDFTLTISSLQPEDFATYYCHQYYTYPLFTFGQGTKLEIKR |  |  |  |  |  | kon [2]: 73000 M⁻¹ s⁻¹; Kd [3]: 6.1 nM
1C8 x 3A1 (antibody, V domains shown, bivalent form) VH: QVQLVQSGSELKKPGASVKVSCKASGYTFTEFGMNWVRQAPGQGLEWMGWINTKTGEATYVEEFKGRFVFSLDTSVSTAYLQISSLKAEDTAVYYCARWDFYHYVEAMDYWGQGTTVTVSS VL: DIQMTQSPSSLSASVGDRVTITCKASANVGNNVAWYQQKPGKAPKLLIYLASNRSGGVPSRFSGSGSGTDFTLTISSLQPEDFATYYCHQYYTYPLFTFGQGTKLEIK | 0.888 | 0.000257 | 289000 |  |  | 
antibody with heavy chain CH7A (D99H) and light chain 2F1 (antibody, V domains shown, Bivalent form) VH: QVQLVQSGSELKKPGASVKVSCKASGYTFTEFGMNWVRQAPGQGLEWMGWINTKTGEATYVEEFKGRFVFSLDTSVSTAYLQISSLKAEDTAVYYCARWDFYHYVEAMDYWGQGTTVTVSS VL: DIQMTQSPSSLSASVGDRVTITCKASAAVGTYVAWYQQKPGKAPKLLIYSASYRKRGVPSRFSGSGSGTDFTLTISSLQPEDFATYYCHQYYTYPLFTFGQGTKLEIKR |  |  |  | 86500 | 2.25 | 
3A1 (bivalent) (antibody, V domains shown, bivalent form of the clone) VH: QVQLVQSGSELKKPGASVKVSCKASGYTFTEFGMNWVRQAPGQGLEWMGWINTKTGEATYVEEFKGRFVFSLDTSVSTAYLQISSLKAEDTAVYYCARWDFYDYVEAMDYWGQGTTVTVSS VL: DIQMTQSPSSLSASVGDRVTITCKASANVGNNVAWYQQKPGKAPKLLIYLASNRSGGVPSRFSGSGSGTDFTLTISSLQPEDFATYYCHQYYTYPLFTFGQGTKLEIK | 1.5 | 0.000364 | 242000 |  |  | 
H4E9 x 3A1 (antibody, V domains shown, bivalent form) VH: QVQLVQSGSELKKPGASVKVSCKASGYTFTEFGMNWVRQAPGQGLEWMGWINTKTGEATYIEEFKGRFVFSLDTSVSTAYLQISSLKAEDTAVYYCARWDFYDYVEAMDYWGQGTTVTVSS VL: DIQMTQSPSSLSASVGDRVTITCKASANVGNNVAWYQQKPGKAPKLLIYLASNRSGGVPSRFSGSGSGTDFTLTISSLQPEDFATYYCHQYYTYPLFTFGQGTKLEIKR | 0.55 | 0.000136 | 246000 |  |  | 
anti-CEA antibody with heavy chain CH1A1E and light chain 2F1 (antibody, V domains shown) VH: QVQLVQSGAEVKKPGASVKVSCKASGYTFTEFGMNWVRQAPGQGLEWMGWINTKTGEATYVEEFKGRFTMTTDTSTSTAYMELRSLRSDDTAVYYCARWDFYDYVEAMDYWGQGTTVTVSS VL: DIQMTQSPSSLSASVGDRVTITCKASAAVGTYVAWYQQKPGKAPKLLIYSASYRKRGVPSRFSGSGSGTDFTLTISSLQPEDFATYYCHQYYTYPLFTFGQGTKLEIKR |  |  |  |  |  | kon [2]: 21100 M⁻¹ s⁻¹; Kd [3]: 20 nM
antibody with heavy chain CH7A (A103T) and light chain 2F1 (antibody, V domains shown, Bivalent form) VH: QVQLVQSGSELKKPGASVKVSCKASGYTFTEFGMNWVRQAPGQGLEWMGWINTKTGEATYVEEFKGRFVFSLDTSVSTAYLQISSLKAEDTAVYYCARWDFYDYVETMDYWGQGTTVTVSS VL: DIQMTQSPSSLSASVGDRVTITCKASAAVGTYVAWYQQKPGKAPKLLIYSASYRKRGVPSRFSGSGSGTDFTLTISSLQPEDFATYYCHQYYTYPLFTFGQGTKLEIKR |  |  |  | 25100 | 2.87 | 
antibody with heavy chain CH7A (D99Y) and light chain 2F1 (antibody, V domains shown, Bivalent form) VH: QVQLVQSGSELKKPGASVKVSCKASGYTFTEFGMNWVRQAPGQGLEWMGWINTKTGEATYVEEFKGRFVFSLDTSVSTAYLQISSLKAEDTAVYYCARWDFYYYVEAMDYWGQGTTVTVSS VL: DIQMTQSPSSLSASVGDRVTITCKASAAVGTYVAWYQQKPGKAPKLLIYSASYRKRGVPSRFSGSGSGTDFTLTISSLQPEDFATYYCHQYYTYPLFTFGQGTKLEIKR |  |  |  | 114000 | 1.73 | 
antibody with heavy chain CH7A (V101F) and light chain 2F1 (antibody, V domains shown, Bivalent form) VH: QVQLVQSGSELKKPGASVKVSCKASGYTFTEFGMNWVRQAPGQGLEWMGWINTKTGEATYVEEFKGRFVFSLDTSVSTAYLQISSLKAEDTAVYYCARWDFYDYFEAMDYWGQGTTVTVSS VL: DIQMTQSPSSLSASVGDRVTITCKASAAVGTYVAWYQQKPGKAPKLLIYSASYRKRGVPSRFSGSGSGTDFTLTISSLQPEDFATYYCHQYYTYPLFTFGQGTKLEIKR |  |  |  | 59400 | 3.18 | 
1C8 x 2F1 (Fab, V domains shown, also called 1C8 x 2F1 hc/lc, monovalent; copies: 1 + 1) VH: QVQLVQSGSELKKPGASVKVSCKASGYTFTEFGMNWVRQAPGQGLEWMGWINTKTGEATYVEEFKGRFVFSLDTSVSTAYLQISSLKAEDTAVYYCARWDFYHYVEAMDYWGQGTTVTVSS VL: DIQMTQSPSSLSASVGDRVTITCKASAAVGTYVAWYQQKPGKAPKLLIYSASYRKRGVPSRFSGSGSGTDFTLTISSLQPEDFATYYCHQYYTYPLFTFGQGTKLEIK |  |  |  |  |  | Kd [6]: 128 nM; koff [6]: 0.0087 s⁻¹; kon [6]: 68100 M⁻¹ s⁻¹
H3 Full (5) 8 x 2F1 (antibody, V domains shown, bivalent form; copies: 2 + 2) VH: QVQLVQSGSELKKPGASVKVSCKASGYTFTEFGMNWVRQAPGQGLEWMGWINTKTGEATYVEEFKGRFVFSLDTSVSTAYLQISSLKAEDTAVYYCARWDFFEYFKTMDYWGQGTTVTVSS VL: DIQMTQSPSSLSASVGDRVTITCKASAAVGTYVAWYQQKPGKAPKLLIYSASYRKRGVPSRFSGSGSGTDFTLTISSLQPEDFATYYCHQYYTYPLFTFGQGTKLEIK | 0.28 | 0.000271 | 993000 |  |  | 
antibody with heavy chain CH7A (E102Q) and light chain 2F1 (antibody, V domains shown, Bivalent form) VH: QVQLVQSGSELKKPGASVKVSCKASGYTFTEFGMNWVRQAPGQGLEWMGWINTKTGEATYVEEFKGRFVFSLDTSVSTAYLQISSLKAEDTAVYYCARWDFYDYVQAMDYWGQGTTVTVSS VL: DIQMTQSPSSLSASVGDRVTITCKASAAVGTYVAWYQQKPGKAPKLLIYSASYRKRGVPSRFSGSGSGTDFTLTISSLQPEDFATYYCHQYYTYPLFTFGQGTKLEIKR |  |  |  | 198000 | 1.63 | 
H3 Full (5) 19 x 2F1 (bivalent) (antibody, V domains shown, bivalent form of the clone; copies: 2 + 2) VH: QVQLVQSGSELKKPGASVKVSCKASGYTFTEFGMSWVRQAPGQGLEWMGWINTKTGEATYVEEFKGRFVFSLDTSVSTAYLQISSLKAEDTAVYYCARWDAFEYVKALDYWGQGTTVTVSS VL: DIQMTQSPSSLSASVGDRVTITCKASAAVGTYVAWYQQKPGKAPKLLIYSASYRKRGVPSRFSGSGSGTDFTLTISSLQPEDFATYYCHQYYTYPLFTFGQGTKLEIK | 0.16 | 0.000284 | 1.76e+06 |  |  | 
